According to US20030165986A1 (IMMUNEX, published 2003):

Biological target: T1, TACI ligand (TACI-L), expressed on transfected cells (Homo sapiens (Human), UniProt Q9Y275 1-285)
T1 construct: cDNA of TACI-L transfected into cells on slides and into CV1 cells (flow cytometry); also called Neutrokine alpha; TL5
Assay: slide binding assay on cDNA-transfected cells
Protocol: […] by adding 2 μg of the DNA encoding the members of the ligand family to a sterile tube and adding 75 μM choloroquine in transfection/growth medium to a final volume of 175 μl. 25 μl of DEAE-dextran (4 mg/ml in PBS) was then added to the DNA solution and mixed.
The growth medium was aspirated from the slides and replaced with 3 ml of 75 μM chloroquine in the transfectionfgrowth medium, followed by the addition of the DNA/DEAE-dextran mixture to the cells. The slides were rocked side-to-side and back-and-forth to distribute the precipitated DNA evenly. The slides were incubated at 37° C. for 4.5 hours.
To screen for positive pools expressing the cell-bound protein, slides were incubated with TACI:Fc and then with a radioiodinated protein probe (labeled goat anti-human Fc F(ab′)2) for 30 minutes at room temperature. The probe solution is then removed by aspiration and washed to remove the non-specifically bound probe. Finally, the slides were fixed by incubating each slide with 1 ml 2.5% glutaraldehyde in PBS for 30 minutes at room temperature to retain specifically bound label. The slides were then washed twice with 1 ml PBS and air-dried.

T1 sequence (Q9Y275 whole entry): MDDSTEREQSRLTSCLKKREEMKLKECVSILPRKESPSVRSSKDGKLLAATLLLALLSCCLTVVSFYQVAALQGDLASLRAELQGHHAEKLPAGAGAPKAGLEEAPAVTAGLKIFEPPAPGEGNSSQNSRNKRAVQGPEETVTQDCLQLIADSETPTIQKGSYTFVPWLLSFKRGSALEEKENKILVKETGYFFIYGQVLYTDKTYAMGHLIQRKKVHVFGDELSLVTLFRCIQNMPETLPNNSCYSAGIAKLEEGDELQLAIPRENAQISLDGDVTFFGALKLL

B1: TACI-Fc (Fc fusion)
chain: SGLGRSRRGGRSRVDQEERFPQGLWTGVAMRSCPEEQYWDPLLGTCMSCKTICNHQSQRTCAAFCRSLSCRKEQGKFYDHLLRDCISCASICGQHPKQCAYFCENKLRSPVNLPPELRRQRSGEVENNSDNSGRYQGLEHRGSEASPALPGLKLSADQVALVYST
notes: also called HuTACI/Fc; Fc chimera; not shown: Fc portion of human IgG1, fused in-frame at the 3' end
B1: binds.
